These results are taken from article PMC314469, “Protein Interaction Networks by Proteome Peptide Scanning” (PLoS Biology, 2004).

The target of assay [1] is T1, amphyphisin SH3 (AMPH_HUMAN), P49418.
T1 chain: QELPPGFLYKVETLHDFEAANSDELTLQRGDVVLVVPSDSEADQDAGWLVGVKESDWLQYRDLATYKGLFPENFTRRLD
In words: SPOT array.

The target in assay [2] is endophilin SH3 (SH3G2_HUMAN), Q99962. In words: SPOT array.

With IRLPPARPPTPGRS [AAM34265 504-518], the normalised SPOT signal, Boehringer light units (BLU); mean over the file's lines of this peptide in assay [1] came out at 4960; in assay [2], 19900.

As for IRSALKRPVEQPLG [P48165 231-244], the values for the normalised SPOT signal, Boehringer light units (BLU); mean over the file's lines of this peptide in assay [1] and in assay [2] were 26.3 and 0, respectively.

With ALRGLVRPHKKRKK [Q9NY93 500-513], the normalised SPOT signal, Boehringer light units (BLU); mean over the file's lines of this peptide stood at 54.6 in assay [1] and 108 in assay [2].

For the molecule IKPFPSRPPVLTQE [Q9P2K1 327-341], the normalised SPOT signal, Boehringer light units (BLU); mean over the file's lines of this peptide in assay [1] was 48.4; in assay [2] it was 437.

In the case of ILGFPLRPNRGLYQ [O95972 116-129], the figures for the normalised SPOT signal, Boehringer light units (BLU); mean over the file's lines of this peptide in assay [1] and in assay [2] were 8510 and 3140, respectively.

Turning to IQFVIKRPELLTEG [O95444 633-646], the normalised SPOT signal, Boehringer light units (BLU); mean over the file's lines of this peptide in assay [1] was determined as 28.5; in assay [2], 29.8.

Consider IQVAFRRPETPSSG [Q9H8D9 51-64], for which the results for the normalised SPOT signal, Boehringer light units (BLU); mean over the file's lines of this peptide in assay [1] and in assay [2] were 55.7 and 5.6, respectively.

With ISELIKRPNVSPKV [Q9NX58 81-94], the normalised SPOT signal, Boehringer light units (BLU); mean over the file's lines of this peptide in assay [1] turned out to be 30.6; in assay [2] it was 14.7.

Consider IPQRPSRPARRPLG [Q9HBL3 242-255], for which the figures for the normalised SPOT signal, Boehringer light units (BLU); mean over the file's lines of this peptide in assay [1] and in assay [2] were 27600 and 84800, respectively.

In the case of ILSPPRRPRHSQPA [Q8WYU9 180-193], the normalised SPOT signal, Boehringer light units (BLU); mean over the file's lines of this peptide is 344 in assay [1] and 797 in assay [2].

For the molecule ALRWLRRPEDRAFS [Q13472 9-22], the normalised SPOT signal, Boehringer light units (BLU); mean over the file's lines of this peptide in assay [1] was determined as 48; in assay [2], 353.

On to IRQILSRPERLLFI [Q9C000 395-408], for which the normalised SPOT signal, Boehringer light units (BLU); mean over the file's lines of this peptide in assay [1] is 973; in assay [2], 398.

Consider IKILPARPIKESEY [Q9P2U9 65-78], for which the normalised SPOT signal, Boehringer light units (BLU); mean over the file's lines of this peptide worked out at 118 in assay [1] and 458 in assay [2].

As to IKKDLSRPQKPQLV [P31629 870-883], the normalised SPOT signal, Boehringer light units (BLU); mean over the file's lines of this peptide came out at 107 in assay [1] and 96.8 in assay [2].

Turning to ISFHPKRPMHILLH [Q96SZ9 375-388], the figures for the normalised SPOT signal, Boehringer light units (BLU); mean over the file's lines of this peptide in assay [1] and in assay [2] were 56.1 and 524, respectively.

With IKILLRRPNEKKSK [P32246 223-236], the normalised SPOT signal, Boehringer light units (BLU); mean over the file's lines of this peptide came out at 37.1 in assay [1] and 81 in assay [2].

For the molecule ALSLPEKPPRGEQG [O94819 607-621], the normalised SPOT signal, Boehringer light units (BLU); mean over the file's lines of this peptide in assay [1] amounted to 727; in assay [2] it was 112.

In the case of IMFDLRRPPQNHTY [Q9HCC8 352-365], the normalised SPOT signal, Boehringer light units (BLU); mean over the file's lines of this peptide in assay [1] worked out at 62.4; in assay [2], 230.

For the molecule ISSVPRRPARALHP [Q9HBK4 869-882], the results for the normalised SPOT signal, Boehringer light units (BLU); mean over the file's lines of this peptide in assay [1] and in assay [2] were 12900 and 5010, respectively.

In the case of ILRPPRRPRKPKTL [Q9NYS8 1488-1501], the results for the normalised SPOT signal, Boehringer light units (BLU); mean over the file's lines of this peptide in assay [1] and in assay [2] were 7790 and 1310, respectively.

Turning to ALSRLARPQRLPVA [P80365 68-81], the normalised SPOT signal, Boehringer light units (BLU); mean over the file's lines of this peptide in assay [1] is 1350; in assay [2], 492.

With IRFKLKRPLEDGGR [O95444 196-209], the values for the normalised SPOT signal, Boehringer light units (BLU); mean over the file's lines of this peptide in assay [1] and in assay [2] were 38.3 and 39.9, respectively.

Take IRLSPNRPPLGGSS [P98161 2462-2476]: the normalised SPOT signal, Boehringer light units (BLU); mean over the file's lines of this peptide amounted to 186 in assay [1] and 1100 in assay [2].

With IRGLLARPAKLQVQ [P07202 539-552], the normalised SPOT signal, Boehringer light units (BLU); mean over the file's lines of this peptide turned out to be 97.3 in assay [1] and 54.1 in assay [2].

On to ILGPPRRPSRHDNS [Q9NZN5 600-613], for which the normalised SPOT signal, Boehringer light units (BLU); mean over the file's lines of this peptide was 17700 in assay [1] and 5800 in assay [2].

On to IQAPPPRPPKNQGL [Q9BYB6 252-266], for which the normalised SPOT signal, Boehringer light units (BLU); mean over the file's lines of this peptide was found to be 861 in assay [1] and 2290 in assay [2].

As to IKTPPKRPGGRRRG [Q15910 343-356], the normalised SPOT signal, Boehringer light units (BLU); mean over the file's lines of this peptide was found to be 68.6 in assay [1] and 628 in assay [2].

Take IPERPLRPPSEKRA [Q9Y2W3 72-86]: the values for the normalised SPOT signal, Boehringer light units (BLU); mean over the file's lines of this peptide in assay [1] and in assay [2] were 11100 and 7610, respectively.

For the molecule ILGSPARPPFSFQP [Q96C66 716-730], the normalised SPOT signal, Boehringer light units (BLU); mean over the file's lines of this peptide was 33 in assay [1] and 1550 in assay [2].

Consider IQEALKRPIKQKRK [Q9Y635 106-119], for which the figures for the normalised SPOT signal, Boehringer light units (BLU); mean over the file's lines of this peptide in assay [1] and in assay [2] were 92.2 and 89.8, respectively.

With IPREPGRPGKGNYW [Q12950 67-80], the normalised SPOT signal, Boehringer light units (BLU); mean over the file's lines of this peptide was found to be 59 in assay [1] and 32.8 in assay [2].

For the molecule ILLSISRPYKTKPT [Q9Y5J0 40-53], the figures for the normalised SPOT signal, Boehringer light units (BLU); mean over the file's lines of this peptide in assay [1] and in assay [2] were 173 and 130, respectively.

On to IQEALKRPMKQKRK [Q92926 129-142], for which the normalised SPOT signal, Boehringer light units (BLU); mean over the file's lines of this peptide in assay [1] turned out to be 71.7; in assay [2], 109.

Turning to ILAKISRPKKRAKT [P48048 178-191], the figures for the normalised SPOT signal, Boehringer light units (BLU); mean over the file's lines of this peptide in assay [1] and in assay [2] were 123 and 58.3, respectively.

Take ILDTLRRPKPVVDP [Q9NQU5 43-56]: the normalised SPOT signal, Boehringer light units (BLU); mean over the file's lines of this peptide in assay [1] came out at 26.6; in assay [2], 0.

On to IKFVIKRPELLTHS [P78347 534-547], for which the normalised SPOT signal, Boehringer light units (BLU); mean over the file's lines of this peptide in assay [1] is 28.9; in assay [2] it was 63.7.

Consider ILPSLSRPARSDQA [O43149 568-581], for which the normalised SPOT signal, Boehringer light units (BLU); mean over the file's lines of this peptide came to 1320 in assay [1] and 366 in assay [2].

In the case of ILPDFKRPASFGTY [O43844 486-499], the normalised SPOT signal, Boehringer light units (BLU); mean over the file's lines of this peptide in assay [1] stood at 30.9; in assay [2], 23.1.
